From the RNAGym collection of RNA variant scans (doi:10.1073/pnas.2313332121)

B1: TPR t1 (parent)
chain: GACCAAUCUGCCCUCAGAGCUCGAGAACAUCUUCGGAUGCAGAGGAGGCAGGCUUCGGUGGCGCGAUAGCGCCAACGUCCUCAACCUCCAAUGCAUCCCACCACAUGAUGAUGCCUGAAGAGCCUUGGUUUUUUG

Variants of: B1
Assay: polymerase ribozyme fitness, log enrichment relative to wild type (log ratio); higher = more active; in vitro selection for triplet polymerase activity
Outline: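 In triplicate, a single round of in vitro selection was run on each mutant library, PCR-built and transcribed, covering one subunit of a heterodimeric triplet polymerase ribozyme. Frozen incubation at −7 °C followed annealing with a biotinylated primer, partner subunit and triplets, and extended constructs were then gel-excised, streptavidin-captured and taken through RT-PCR. Fitness is the logarithm of genotype enrichment over wild-type enrichment, from inverse-variance-weighted replicate averages of Illumina-sequenced inputs and outputs. […] only genotypes with ≥10 input reads and ≥1 read per output were kept.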

Variant	polymerase ribozyme fitness (log ratio)
C79A G127U	-2.57
U81C C114U	-1.96
A83U C85A U112A C114A	-3.32
C79A U131C	-0.838
C82G U116G	-2.05
C79A U81C G120U G135C	-2.91
G77A U81A	-1.01
C79A U87C G113U	-4.71
C79U C98A	-4.92
G77U C79U U106C	-0.595
G77U C79U U106A	-0.0765
C85U U132A	-1.56
A84G G93U U125G	-2.63
C79U G135U	-0.964
C79A A100C	-2.29
U78C G120A	0.768
U81C C124A	0.431
U78C C114A	-1.63
C82A C102A	-2.33
U78A C79A A95C	-4.32
C82G C115A C123A	-1.32

Variant	polymerase ribozyme fitness (log ratio)
C79G C82G U92A A121G	-5.59
G77U A84G C85G	-2.45
U78G C86G U112A C124G G135U	-1.2
U78A U109C	-4.47
C80U U112A	0.959
C82A A118G A121G	1.48
U81G C89G A121G	-4.14
U78A C124U U125A U133C	1.84
C79A C115A	-2.1
U78C A95C C123A	0.0148
C86G C89G C104U	-0.896
C85G C115G U132A	-2.4
C85G U112G	-1.15
C85G U112C	0.41
A84U C88A	-1.4
G77A C101A	-1.18
C85A C94A A111U	-5.51
A83C A111U	-3.57
C79A U112A G128U	-3.42
U78A A100C	-1.08
U78C C102G	-5.35

Variant	polymerase ribozyme fitness (log ratio)
C86A G120C	-0.326
U78C A84G G128A	-3.53
U78G C86U	-0.465
C82G C99A C101U A119G	-6.25
G77U G128C	-3.09
C80U U131A	-0.732
A83U C104A	-1.18
C82A U112A U131A	1.09
C79U C88U	-0.115
A83G U112C U131A	1.02
U78C U112A A118U	1.17
C86A A105C	-2.57
U81G U129A	-5.4
G77C C104A U116G G122A	-5.01
C82U A100C C123U	-0.0044
C82G C86A A121U	1.39
C80G A119U	-2.85
C80A G113U	-4.78
C82A G117U	-0.792
C80U U109C	-3.85
A83U G117U	-1.02

Variant	polymerase ribozyme fitness (log ratio)
A83G G120U C124A G135A	0.857
C80A G93A C124A G128A	-5.36
C79G C89U A91C	-4.46
G77A C79U	0.354
C79U C82A U87A G110C	-4.6
C79G G120A	-0.791
G77A G120A G128C	-2.08
C86G G110A G113U C124A	-6.69
C86A A121G	1.66
C86U C89U	-0.118
A84U C114A U131A	-0.993
C79U A111U	-3.01
U81A C86G	-1.48
C80U C102A	-2.21
U78G A111U U131A	-2.99
G77U A91U	-2.18
A84C C85U U87A C89G C124A	-5.8
C79U A118C	-2.46
C80U A90U	-0.991
A84C U130C	-0.28
C82A C86A	-0.787
